Reference: publication PMC7913776 (Nucleic Acids Research, 2021)

Biological target: T1, GST-tagged full-length BACH1 protein (mouse, UniProt P97302 1-739)
T1 sequence: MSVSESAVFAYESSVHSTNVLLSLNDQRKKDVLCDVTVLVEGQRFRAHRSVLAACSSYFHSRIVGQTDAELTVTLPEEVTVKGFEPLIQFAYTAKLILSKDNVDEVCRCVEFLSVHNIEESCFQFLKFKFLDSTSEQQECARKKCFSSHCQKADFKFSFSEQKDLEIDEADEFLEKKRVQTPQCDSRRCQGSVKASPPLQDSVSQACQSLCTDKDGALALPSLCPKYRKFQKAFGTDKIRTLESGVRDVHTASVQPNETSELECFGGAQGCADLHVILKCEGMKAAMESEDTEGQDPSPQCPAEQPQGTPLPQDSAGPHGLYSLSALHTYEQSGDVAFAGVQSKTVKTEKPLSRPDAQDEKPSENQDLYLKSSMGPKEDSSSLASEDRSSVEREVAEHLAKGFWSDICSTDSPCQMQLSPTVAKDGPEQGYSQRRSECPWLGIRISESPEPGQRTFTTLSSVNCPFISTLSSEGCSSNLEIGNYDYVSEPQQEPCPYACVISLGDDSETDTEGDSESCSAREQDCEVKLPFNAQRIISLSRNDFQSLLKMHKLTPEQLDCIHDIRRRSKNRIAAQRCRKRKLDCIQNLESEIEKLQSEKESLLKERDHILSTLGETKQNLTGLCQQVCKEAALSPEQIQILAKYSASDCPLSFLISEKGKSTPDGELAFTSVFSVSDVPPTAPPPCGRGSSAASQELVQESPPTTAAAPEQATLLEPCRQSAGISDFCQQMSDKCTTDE
Assay: pull-down

B1: HIS-tagged NANOG (natural protein)
chain: MSVGLPGPHSLPSSEEASNSGNASSMPAVFHPENYSCLQGSATEMLCTEAASPRPSSEDLPLQGSPDSSTSPKQKLSSPEADKGPEEEENKVLARKQKMRTVFSQAQLCALKDRFQKQKYLSLQQMQELSSILNLSYKQVKTWFQNQRMKCKRWQKNQWLKTSNGLIQKGSAPVEYPSIHCSYPQGYLVNASGSLSMWGSQTWTNPTWSSQTWTNPTWNNQTWTNPTWSSQAWTAQSWNGQPWNAAPLHNFGEDFLQPYVQLQQNFSASDLEVNLEATRESHAHFSTPQALELFLNYSVTPPGEI
binding result: binds
